Source: article PMC12416549 (2024)

T1: TNFR1 (Homo sapiens, UniProt P19438)
T1 chain: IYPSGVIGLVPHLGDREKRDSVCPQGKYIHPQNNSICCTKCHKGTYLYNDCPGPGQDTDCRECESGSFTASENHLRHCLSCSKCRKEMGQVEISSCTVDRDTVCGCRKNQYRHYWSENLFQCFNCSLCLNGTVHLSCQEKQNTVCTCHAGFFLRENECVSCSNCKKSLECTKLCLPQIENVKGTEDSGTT


Biological target: T1, TNFR1
Assay: yeast display SC50

Binder	apparent Kd (screen) [nM]
S47I (designed binder) MTLQELLREEALRRAEAEAFRYALELLAEKFPEQKEYLLDLAEEIEIQIRSLSGVDVEDVRKFLDKEWAWVKELLAEHPAELAEVEAARAARLAELRAEVEAKVAA	0.956
V60N (designed binder) MTLQELLREEALRRAEAEAFRYALELLAEKFPEQKEYLLDLAEEIESQIRSLSGVDVEDNRKFLDKEWAWVKELLAEHPAELAEVEAARAARLAELRAEVEAKVAA	0.956
K62Q (designed binder) MTLQELLREEALRRAEAEAFRYALELLAEKFPEQKEYLLDLAEEIESQIRSLSGVDVEDVRQFLDKEWAWVKELLAEHPAELAEVEAARAARLAELRAEVEAKVAA	0.539
D56C (designed binder) MTLQELLREEALRRAEAEAFRYALELLAEKFPEQKEYLLDLAEEIESQIRSLSGVCVEDVRKFLDKEWAWVKELLAEHPAELAEVEAARAARLAELRAEVEAKVAA	0.956
I45H (designed binder) MTLQELLREEALRRAEAEAFRYALELLAEKFPEQKEYLLDLAEEHESQIRSLSGVDVEDVRKFLDKEWAWVKELLAEHPAELAEVEAARAARLAELRAEVEAKVAA	0.956
L39D (designed binder) MTLQELLREEALRRAEAEAFRYALELLAEKFPEQKEYLDDLAEEIESQIRSLSGVDVEDVRKFLDKEWAWVKELLAEHPAELAEVEAARAARLAELRAEVEAKVAA	8.56
E36D (designed binder) MTLQELLREEALRRAEAEAFRYALELLAEKFPEQKDYLLDLAEEIESQIRSLSGVDVEDVRKFLDKEWAWVKELLAEHPAELAEVEAARAARLAELRAEVEAKVAA	0.49
E43K (designed binder) MTLQELLREEALRRAEAEAFRYALELLAEKFPEQKEYLLDLAKEIESQIRSLSGVDVEDVRKFLDKEWAWVKELLAEHPAELAEVEAARAARLAELRAEVEAKVAA	0.79
L38N (designed binder) MTLQELLREEALRRAEAEAFRYALELLAEKFPEQKEYNLDLAEEIESQIRSLSGVDVEDVRKFLDKEWAWVKELLAEHPAELAEVEAARAARLAELRAEVEAKVAA	1.86
A17R (designed binder) MTLQELLREEALRRAEREAFRYALELLAEKFPEQKEYLLDLAEEIESQIRSLSGVDVEDVRKFLDKEWAWVKELLAEHPAELAEVEAARAARLAELRAEVEAKVAA	0.539
A11F (designed binder) MTLQELLREEFLRRAEAEAFRYALELLAEKFPEQKEYLLDLAEEIESQIRSLSGVDVEDVRKFLDKEWAWVKELLAEHPAELAEVEAARAARLAELRAEVEAKVAA	0.718
R61V (designed binder) MTLQELLREEALRRAEAEAFRYALELLAEKFPEQKEYLLDLAEEIESQIRSLSGVDVEDVVKFLDKEWAWVKELLAEHPAELAEVEAARAARLAELRAEVEAKVAA	0.593
L3P (designed binder) MTPQELLREEALRRAEAEAFRYALELLAEKFPEQKEYLLDLAEEIESQIRSLSGVDVEDVRKFLDKEWAWVKELLAEHPAELAEVEAARAARLAELRAEVEAKVAA	2.73
D56W (designed binder) MTLQELLREEALRRAEAEAFRYALELLAEKFPEQKEYLLDLAEEIESQIRSLSGVWVEDVRKFLDKEWAWVKELLAEHPAELAEVEAARAARLAELRAEVEAKVAA	1.69
F20C (designed binder) MTLQELLREEALRRAEAEACRYALELLAEKFPEQKEYLLDLAEEIESQIRSLSGVDVEDVRKFLDKEWAWVKELLAEHPAELAEVEAARAARLAELRAEVEAKVAA	1.69
K62E (designed binder) MTLQELLREEALRRAEAEAFRYALELLAEKFPEQKEYLLDLAEEIESQIRSLSGVDVEDVREFLDKEWAWVKELLAEHPAELAEVEAARAARLAELRAEVEAKVAA	0.79
L6Y (designed binder) MTLQEYLREEALRRAEAEAFRYALELLAEKFPEQKEYLLDLAEEIESQIRSLSGVDVEDVRKFLDKEWAWVKELLAEHPAELAEVEAARAARLAELRAEVEAKVAA	5.31
A19M (designed binder) MTLQELLREEALRRAEAEMFRYALELLAEKFPEQKEYLLDLAEEIESQIRSLSGVDVEDVRKFLDKEWAWVKELLAEHPAELAEVEAARAARLAELRAEVEAKVAA	0.539
L24Q (designed binder) MTLQELLREEALRRAEAEAFRYAQELLAEKFPEQKEYLLDLAEEIESQIRSLSGVDVEDVRKFLDKEWAWVKELLAEHPAELAEVEAARAARLAELRAEVEAKVAA	0.79
E10I (designed binder) MTLQELLREIALRRAEAEAFRYALELLAEKFPEQKEYLLDLAEEIESQIRSLSGVDVEDVRKFLDKEWAWVKELLAEHPAELAEVEAARAARLAELRAEVEAKVAA	1.16

Continued, values first:

apparent Kd (screen) [nM]	Binder
24.4	V71R (designed binder) MTLQELLREEALRRAEAEAFRYALELLAEKFPEQKEYLLDLAEEIESQIRSLSGVDVEDVRKFLDKEWAWRKELLAEHPAELAEVEAARAARLAELRAEVEAKVAA
0.79	A102T (designed binder) MTLQELLREEALRRAEAEAFRYALELLAEKFPEQKEYLLDLAEEIESQIRSLSGVDVEDVRKFLDKEWAWVKELLAEHPAELAEVEAARAARLAELRAEVETKVAA
0.49	E101D (designed binder) MTLQELLREEALRRAEAEAFRYALELLAEKFPEQKEYLLDLAEEIESQIRSLSGVDVEDVRKFLDKEWAWVKELLAEHPAELAEVEAARAARLAELRAEVDAKVAA
0.539	E95K (designed binder) MTLQELLREEALRRAEAEAFRYALELLAEKFPEQKEYLLDLAEEIESQIRSLSGVDVEDVRKFLDKEWAWVKELLAEHPAELAEVEAARAARLAKLRAEVEAKVAA
0.869	P79Y (designed binder) MTLQELLREEALRRAEAEAFRYALELLAEKFPEQKEYLLDLAEEIESQIRSLSGVDVEDVRKFLDKEWAWVKELLAEHYAELAEVEAARAARLAELRAEVEAKVAA
0.446	L93H (designed binder) MTLQELLREEALRRAEAEAFRYALELLAEKFPEQKEYLLDLAEEIESQIRSLSGVDVEDVRKFLDKEWAWVKELLAEHPAELAEVEAARAARHAELRAEVEAKVAA
0.539	E99K (designed binder) MTLQELLREEALRRAEAEAFRYALELLAEKFPEQKEYLLDLAEEIESQIRSLSGVDVEDVRKFLDKEWAWVKELLAEHPAELAEVEAARAARLAELRAKVEAKVAA
0.653	L75R (designed binder) MTLQELLREEALRRAEAEAFRYALELLAEKFPEQKEYLLDLAEEIESQIRSLSGVDVEDVRKFLDKEWAWVKELRAEHPAELAEVEAARAARLAELRAEVEAKVAA
0.718	A76K (designed binder) MTLQELLREEALRRAEAEAFRYALELLAEKFPEQKEYLLDLAEEIESQIRSLSGVDVEDVRKFLDKEWAWVKELLKEHPAELAEVEAARAARLAELRAEVEAKVAA
0.653	E99C (designed binder) MTLQELLREEALRRAEAEAFRYALELLAEKFPEQKEYLLDLAEEIESQIRSLSGVDVEDVRKFLDKEWAWVKELLAEHPAELAEVEAARAARLAELRACVEAKVAA
12.5	W68D (designed binder) MTLQELLREEALRRAEAEAFRYALELLAEKFPEQKEYLLDLAEEIESQIRSLSGVDVEDVRKFLDKEDAWVKELLAEHPAELAEVEAARAARLAELRAEVEAKVAA
0.539	R89K (designed binder) MTLQELLREEALRRAEAEAFRYALELLAEKFPEQKEYLLDLAEEIESQIRSLSGVDVEDVRKFLDKEWAWVKELLAEHPAELAEVEAAKAARLAELRAEVEAKVAA
0.653	L93T (designed binder) MTLQELLREEALRRAEAEAFRYALELLAEKFPEQKEYLLDLAEEIESQIRSLSGVDVEDVRKFLDKEWAWVKELLAEHPAELAEVEAARAARTAELRAEVEAKVAA
0.79	E84R (designed binder) MTLQELLREEALRRAEAEAFRYALELLAEKFPEQKEYLLDLAEEIESQIRSLSGVDVEDVRKFLDKEWAWVKELLAEHPAELARVEAARAARLAELRAEVEAKVAA
0.446	K62Y (designed binder) MTLQELLREEALRRAEAEAFRYALELLAEKFPEQKEYLLDLAEEIESQIRSLSGVDVEDVRYFLDKEWAWVKELLAEHPAELAEVEAARAARLAELRAEVEAKVAA
